This note sets out measurements from paper PMC6637868.

For the series, the target named is 6His-CspA (Xanthomonas oryzae pv. oryzae PXO99A, UniProt A0ACG7R7F9 8-71). Kind of series: EMSA. Conditions: protein: recombinant; tags: N-terminal His6 (pET-30a-c(+)); label: 3' biotin.

B1: PXO_RS11830 promoter probe (dsDNA)
DNA 1: CTGGCGGACGCCAATAGCGGTTGAATGGGCAAGAGGATCT
DNA 2: AGATCCTCTTGCCCATTCAACCGCTATTGGCGTCCGCCAG
On to B1, for which the binding result is “binds”.

B2: PXO_RS01060 promoter probe (dsDNA)
DNA 1: ATGATGTCGCCCAATCCCTGACCAGATCGATGCGCATGCA
DNA 2: TGCATGCGCATCGATCTGGTCAGGGATTGGGCGACATCAT
For B2, the binding result is “binds”.
